The text below walks through data of PMC6254012, “AP2/ERF Family Transcription Factors ORA59 and RAP2.3 Interact in the Nucleus and Function Together in Ethylene Responses” (Frontiers in Plant Science, 2018).

In the test the target is T1, His-tagged RAP2.3 (RAP2.3-His) (Arabidopsis thaliana, UniProt P42736 1-248).
T1 construct: RAP2.3 (related to AP2.3), Arabidopsis thaliana; not shown: His, C-terminal, kept
The experiment in a line: pull-down; GST or ORA59-GST (10 μg) on glutathione sepharose 4B beads, RAP2.3-His (10 μg) added for 2 h at 4°C; 25 mM Tris-HCl pH 8.0, 100 mM NaCl, 1% Triton X-100, 1 mM DTT; immunoblot with anti-GST and anti-His. The following applies: both partners purified. On the technique in general: In western blotting, separated proteins are transferred to a membrane and probed.

T1 sequence (P42736 whole entry): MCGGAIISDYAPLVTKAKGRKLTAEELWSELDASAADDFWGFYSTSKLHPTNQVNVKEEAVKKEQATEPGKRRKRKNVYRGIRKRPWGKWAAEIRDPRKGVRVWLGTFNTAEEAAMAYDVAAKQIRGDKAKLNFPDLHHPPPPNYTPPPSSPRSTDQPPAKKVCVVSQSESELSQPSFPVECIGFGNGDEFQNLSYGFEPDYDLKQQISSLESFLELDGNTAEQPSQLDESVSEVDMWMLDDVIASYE

B1: C-terminal GST-tagged ORA59 (ORA59-GST) (natural protein)
chain: not shown
notes: ORA59 (octadecanoid-responsive arabidopsis 59), Arabidopsis thaliana; not shown: GST, C-terminal, kept
Consider B1, for which the binding result is given as “binds”.
